These results are taken from patent publication US20140294844A1 (published 2014).

The chains are these.
B2: huPrP23-231 (receptor)
chain: not shown

The target of the experiment “huPrP23-231” is B2.
Experiment [1] concerns the target A[beta]-derived diffusible ligands (ADDL) prepared from A[beta]1-42 (UniProt P05067 672-713).
The target of experiment [2] is bADDL preparation from biotinylated A[beta]1-42 (bA[beta]1-42) (UniProt P05067 672-713).

As a reminder, the Kd is the concentration at which binding is half-saturated. Broadly, the Ki is a dissociation constant, usually derived from enzyme kinetics or from competition with a known ligand. Low readings indicate higher affinity, high ones lower affinity.

B1: ICSM-18 (antibody, V domains shown)
VH: EVQLQQSGPELVKPGSSVKISCKASRNTFTDYNLDWVKQSHGKTLEWIGNVYPNNGVTGYNQKFRGKATLTVDKSSSTAYMELHSLTSEDSAVYYCALYYYDVSYWGQGTLVTVSA
VL: QIVLTQSPAIMSASPGEKVTMTCSASSSVSYMHWYQQKSGTSPKRWIYDTSKLASGVPARFSGSGSGTSYSLTISSMEAEDAATYFCHQWRSNPYTFGGGTKLEIKR
Consider B1, for which, in the experiment with huPrP23-231, the Kd was ~10 nM and the Ki is ~20 nM.

In turn, B2 registered a Kd in experiment [1] of 100 nM. In experiment [2], the Kd came to 82 nM and the “fold tighter binding than huPrP91-231” value came to 100 fold.
